Reference: patent US20250381269A1 (FORTVITA BIOLOGICS SINGAPORE PTE, published 2025)
Each block holds one binder with its values, some of them ahead of it.

How the values were obtained:
[1] = biological target: T1, human B7H3 (B73-H52E2, Acro Biosystem) (human, UniProt Q5ZPR3-2 29-245); assay: BLI (Octet Red96e), antibody captured on AHC sensor, human B7H3 100 nM in solution
T1 construct: also called CD276; antigen B
T1 sequence (looked up): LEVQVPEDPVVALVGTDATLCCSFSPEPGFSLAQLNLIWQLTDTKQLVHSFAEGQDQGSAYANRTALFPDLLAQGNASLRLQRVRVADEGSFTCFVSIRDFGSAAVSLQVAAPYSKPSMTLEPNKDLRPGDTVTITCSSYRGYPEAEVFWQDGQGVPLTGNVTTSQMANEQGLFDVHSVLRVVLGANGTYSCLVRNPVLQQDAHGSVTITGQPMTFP

[2] = biological target: T2, human EGFR (EGR-H5222, Acro Biosystem) (human, UniProt P00533 25-645); assay: BLI (Octet Red96e), antibody captured on AHC sensor, human EGFR 100 nM in solution
T2 construct: Bought reagent; also called antigen A

[3] = biological target: EGFR R521K/Y1069C on CCK-81 cells (UniProt P00533 25-1210, limits assumed); assay: cell-based or functional assay
[4] = biological target: EGFR Del19 (amplified) on H1650 cells (UniProt P00533 25-1210); assay: cell-based or functional assay
[5] = biological target: EGFR L858R/T790M on H1975 cells (UniProt P00533 25-1210, limits assumed); assay: cell-based or functional assay
[6] = biological target: EGFR R521K on HT-55 and LS180 cells (UniProt P00533 25-1210, limits assumed); assay: cell-based or functional assay
[7] = biological target: EGFR, wild type, on tumour cells (H508, TE-1, Colo-680N, H292, H322, H358; amplified in SK-MES-1 and H1703) (UniProt P00533 25-1210, limits assumed); assay: cell-based or functional assay

- Kd [1]: 6.73 nM
- koff [1]: 0.00219 s⁻¹
- kon [1]: 326000 M⁻¹ s⁻¹
- Kd [2]: 4.19 nM
- koff [2]: 0.00121 s⁻¹
- kon [2]: 289000 M⁻¹ s⁻¹
B1: Hz19A2.25/Zalu bsAb bispecific antibody molecule (bispecific antibody, human IgG1, kappa)
heavy 1: not shown
light 1: not shown
heavy 2: not shown
light 2: EIVLTQSPATLSLSPGERATLSCSVSSSVQSNYLYWYQQKPGQAPRLLIYGTSNLASGIPARFSGSGSGTDFTLTISSLEPEDFAVYYCYQWSSYPFTFGQGTKLEIKRTVAAPSVFIFPPSDEQLKSGTASVVCLLNNFYPREAKVQWKVDNALQSGNSQESVTEQDSKDSTYSLSSTLTLSKADYEKHKVYACEVTHQGLSSPVTKSFNRGEC
notes: IgG1-like, four polypeptide chains, Innobody heterodimer Fc mutations; low fucose (GlymaxX)

- Kd [1]: 2.48 nM
- IC50(nM), proliferation inhibition, CCK-81 cells [3]: 0.24 nM
- IC50(nM), proliferation inhibition, H1650 cells [4]: 4.86 nM
- IC50(nM), proliferation inhibition, H1975 cells [5]: 0.99 nM
- IC50(nM), proliferation inhibition, HT-55 cells [6]: 0.14 nM
- IC50(nM), proliferation inhibition, LS180 cells [6]: 1.33 nM
- IC50(nM), proliferation inhibition, Colo-680N cells [7]: 12.3 nM
- IC50(nM), proliferation inhibition, H292 cells [7]: 57.8 nM
- IC50(nM), proliferation inhibition, H508 cells [7]: 1.08 nM
- IC50(nM), proliferation inhibition, SK-MES-1 cells (EGFR amplification) [7]: 0.4 nM
- IC50(nM), proliferation inhibition, TE-1 cells [7]: 16 nM
- Kd [2]: 4.59 nM
B2: Hz20G5.26/Zalu bsAb bispecific antibody molecule (bispecific antibody, human IgG1, kappa)
heavy 1: not shown
light 1: not shown
heavy 2: not shown
light 2: DIQLTQSPSFLSASVGDRVTITCSASSSVSYIHWYQQKPGKAPKRWIYDTSRLASGVPSRFSGSGSGTEFTLTISSLQPEDFATYYCQQWSSAPLTFGGGTKVEIKRTVAAPSVFIFPPSDEQLKSGTASVVCLLNNFYPREAKVQWKVDNALQSGNSQESVTEQDSKDSTYSLSSTLTLSKADYEKHKVYACEVTHQGLSSPVTKSFNRGEC
notes: also called anti-B7-H3/EGFR bispecific antibody

- Kd [1]: 8.25 nM
- koff [1]: 0.00352 s⁻¹
- kon [1]: 427000 M⁻¹ s⁻¹
- Kd [2]: 4.69 nM
- koff [2]: 0.00124 s⁻¹
- kon [2]: 264000 M⁻¹ s⁻¹
B3: Hz5C2.9/Zalu bsAb bispecific antibody molecule (bispecific antibody, human IgG1, kappa)
heavy 1: not shown
light 1: not shown
heavy 2: not shown
light 2: EIVLTQSPGTLSLSPGERATLSCRSSQSLVHSQGITYLDWYQQKPGQAPRLLIYKVSNRFSGIPDRFSGSGSGTDFTLTISRLEPEDFAVYYCSQGTHVPPWTFGGGTKVEIKRTVAAPSVFIFPPSDEQLKSGTASVVCLLNNFYPREAKVQWKVDNALQSGNSQESVTEQDSKDSTYSLSSTLTLSKADYEKHKVYACEVTHQGLSSPVTKSFNRGEC
notes: as for B1
